Data from PMC3821912.

Biological target: areca nut (AN) peroxidase (Areca catechu L.)
Assay: native gel or EMSA; native gel without heating or reducing agent; zymogram (20 mM guaiacol, 5 mM H2O2) and Coomassie staining; enzyme desalted with HEPES buffer (20 mM, pH 7.9); dimer to monomers

areca nut (AN) peroxidase (enzyme) showed a stoichiometry N of 2.
